# Experiment: yeast display, Sf9 membrane polyspecificity reagent, FACS + sequencing; frameworks hold sequencing errors
# Summary of the method: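 A nanobody's polyreactivity label depends on the gate it was sorted from. Yeast display cells were stained with 10% biotinylated, detergent-solubilized Sf9 membrane reagent for 1 hour at 4 °C, enriched on streptavidin microbeads and sorted by FACS. The low and high (top ~1%) gates were set on anti-HA fluorescence for expression and streptavidin fluorescence for reagent binding.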
row,Sequence,polyreactivity (PSR sort gate)
1,QVQLVESGGGLVQAGGRLRLSCAASGITFTYYSMGGYRQAPGKERELVAAITDDGNTNYADSVKGRFTISRDNAKNTVYLQMNSLIPEDTAVYYCAADLLGIPDYEYWGQGTQVTVSS,low polyreactivity
2,QVLLVESGGGLVQAGGSLRLSCAATGSIFVGYVMGWYRQAPGKERELVAAISRSGGRTYYADSVKGRFTISRDNAKNTVYLQMNSLKPEDTAVYYCAVRHRFYTAGYDYWGQGTQVTVSS,low polyreactivity
3,QVQLVESGGGLVQAGGSLRLSCAASGSTFNYYTMGWYRQAPGKERELVAAISGRGSITYYADSVKGRFTISRDNAKNTVYLQMNSLKPEDTAVYYCNARYGRWQGSSGEHDYWGQGTQVTVSS,high polyreactivity
4,QVQLVESGGGLVQAGGILRLSCAASGSTFSPYAMGWYRQAPGKERELVANITISGGSTYYADSVKGRFTISRDNAKNTVYLQMNSLKAEDTAVYYCNADSLIRWLFTVVIFDYWGQGTQVTVSS,low polyreactivity
5,QVQLVESGGGLVQAGGSLRLSCAASGITFRRYVMGWYRQAPGKERELVARISSDGSTSYADSVKGRFTISRNNAKNTVYLQMNSLKPEDTAVYYCAAVHQWYVRYSTGYNYWGQGTQVTVSS,high polyreactivity
6,QVQLVESVGGLVQAGGSLRLSCAAYGLTFRYYAMGWYRQSPGKESELDAAISSGGSTNYADSVKGRFTISRDNAKNTVYLQMNSLKPEDTAVYYCAAVSNSKWGRWGRAKYNYWGQGTQVTVSS,high polyreactivity
7,QVQLVESGGGLVQAGGSLRLSCAASGSIFWYNAMGWYIHAPWNERELVAAITSSSGRTRYADSEKGRFTISRDNAKNTVYLQMNSLKQEDTAVYYCAVAEGYSPAYLRDYWGQGTQVTVSS,high polyreactivity
8,QVQLVESGGGLVQAGGSLRLSCSASGNIFFGYAMGLYRQAPGKERQFVASITKIGGSTYYADSVKGRFTISRDNAKNTVYLQLNSLKPEDTAVYYCAARLGHSVNPGGERWDVVYWGQGTQVTVSS,low polyreactivity
9,QVQLVESGGGLVQAGGSLRLSCAASGSIFVFYAMGWYRQAPGKEREFVAAMSISGGRTYYADSVKGRFTISRDIAKNTVYLQMNSLKPEDTAVYYCAASRVYTSITLYYWGQGTQVTVSS,high polyreactivity
10,QVQLVESGGGLVQAGGSLRLSCAASGFIFDSYAMGWYRQAPGKVRELVATISRRGSSTYYADSVKGRFTISRDNAKNTVYLQMNSLKPEDNAVYYCAAGSISYYYKLYWGGYWGQGTQVTVSS,high polyreactivity
11,QVQLVESGGGLVQAGGSLRLSCAASGRIFAGYAMGWYRQAPGKERELVAAITTGGSTHYADSVKGRFTISRDNAKNTVYLQMNSLKPEDTAVYYCNAKVEFWESWGWLLDDDYWGQGTQVTVSS,low polyreactivity
12,QVQLVESGGGLVQAGGSLRLSCAASGFTFTIYAMGWYRPAPGKEMELVAAITGRGGSTYYADSVKGRFTISRDNAKNTVYLRMNSLKPEDTAVYYCADSQRSGHPSYDYWGQGTQVTVSS,high polyreactivity
13,QVQLVESGGGLVQAGGSLRLSCAASGIIFVRYTMGWYRQAPGKERELVAAISSSGGSTYYADSVKGRFTISRDNAKNTVYLQLNSLKPEDTAVYYCIAEIRDNNVGYDTDYDYWGQGSQVTVSS,high polyreactivity
14,QVQLVESGGGLVQAGGSLRLSCAASGSIFGGYAMGWYRQAPGKERELVAAISSGGSTYYADSVKGRFTISRDNAKNTVYLQMNSLKPEDTAVYYCATSTYAYRRNSYDYTRPRFGYWGQGTQVTVSS,high polyreactivity
15,QVQLVESGGGLVQAGGSLRLSCAASGGIFRRYPMGWYRQATGKERELVAAISKRGGSTYYADSVKGRFTISRDNAKNTVYLQMNSLKPEDTAFYYCAKQRGGQPRSSTYYYWGQGTQVTVSS,high polyreactivity
16,QVQLVESGGGLVQAGGSLRLSCAASGRTFDGYVMGWYRQAPGKERELVAAISWGGSSTYYADSVKGRFTISRDNAKNTVYLQMNSLKPEDTAVYYCAKDTVPYERDYWGQGTQVTVSS,low polyreactivity
17,QVQLVESGGGLVQAGGSLRLSCAASGSIFGSYAMGWYRQAPGKERELVAAISRRGGSTYYADSVKGRFTISRDNAKNTVYLQMNSLKPEDTAVYYCAARWPTGRNGYWGQGTQVTVSS,high polyreactivity
18,QVQLVESGGGLVQAGGSLRLSCAASGFIISYYAMGWYRQAPGKDRELVAAISWRGGSTYYADSVKGRFTISRDNAKNTVYLQMNSLKPEDTAVYYCAADFLYGAEGNDYWGQGTQVTVSS,high polyreactivity
19,QVQLVESGGGLVQAGGSLRLSCAASGLTFGYYDMGRYRQAPGKERELVAAITSGGTTNYADSVKGRFTISRDNAKNTVYLQMNSQKPEDNAVYYCNADYYSRIVGVRIYDYWGQGTQVTVSS,low polyreactivity
20,QVQLVESGGGLVQAGGSLRLSCAASGSIFTEYAMGWYRQAPGKERELVAAISWSGATTYYADSVKGRFTISRDNAKNTVYLQMNSLKPEDTAVYYCAARWANRSYEYWGQGTQVTVSS,low polyreactivity

row,Sequence,polyreactivity (PSR sort gate)
1,QVQLVESGGGLVQAGGSLRLSCAASGRIFKYYAMGWYRQAPGKERELVAAITRGGSTNYADSVKGRFTISRDNASNTVYLQMTSLKPEDTAVYYCAVVTVRNHRMDYWGQGTQVTVSS,low polyreactivity
2,QVQLVESGGGLVQAGGSLRLSCAASGSIFRHYTMGWYRQAPGKERELVAVISSGGNTNYADSVKGLFTISRDNAKYTDYLQLNSLKPEDTAVYYCAAGGYDVYHDPYYYWGQGTQVTVSS,high polyreactivity
3,QGQLVESGGGLVQAGGSLRLSCAASGRIFGHYAMGWYRQAPGKERELVAAISQSGTNTYYADSVKGRFTISRDNAKNTVYLQMNSLKPEDTAVYYCAAKPPRRYQLMDYWGQGTQVTVSS,high polyreactivity
4,QVQLVESGGGLVQAGGSLSLICAASGFTFLIYAMGWYRQAPGKERELVAAITWRGSGTYYADSVKGRFTISRDNAKNTVYLQMNSLKPEDTAVYYCAARTARRTYDYWGQGTQVTLSS,low polyreactivity
5,QDQLVESGGGLVQAGGSLRLSCAASGRLFATYAMGWNRQAPGKERELVAAISDSGGRTYYADSVTGRFTSSRDNAKNTVYLQMNSLKPEDTAVYYCAAKNGDRYARGYWGQGTQVTVSS,high polyreactivity
6,QVQLVESGGGLVQAGGSLRLICAASGFNFVTNAMGWYRQAPGKERELVAAISRRGGSTYYADSVKGRFTISRDIAKNTVYLQMNSLKPEDTAVLYCAAVTLSAESGYYWGHGTQVTVSS,high polyreactivity
7,QVQLVESGGGLVQAGGSLRLSCAASGRIFYGNAMGWYRQAPGKERQLVAAITDGGSTNYADSVKGRFTISRDNAKNTVYLQMNSLKPEDTAVYYCAKDYRGSYYKYDYWGQGTQVTVSS,low polyreactivity
8,QVQLVESGGGLVQAGGSLRLSCAASGRTFTSYAMGWYRQAPGKERELVAGISSGGSTFYADSVKGRFTISRDNAQNTVYLQMNSLKPEDTAVYYCAADFRRVFSKYSYYLYFDFDYWGQGTQVTVSS,low polyreactivity
9,QVQLVESGGGLVQAGGSLRLSCAASGSTFYLNAMGWYRQAPGKERELVAAITVSGGSTYYADSVKGRFTISRDNAKNTVYLQMNSLKPEDTAVYYCARELLSPTYPRWYYYWGQGTQVTVSS,low polyreactivity
10,QVQLVDSGGGLVQAAGSLRLSCAASGSTFVTYAMGGYRTAPGKERELVAAISSGAGTNYADSVKGRFTISRDNAKNTVYLQMNSLKPEDTAVDYCAADKAVGDSTRYYYWGQGTQVTVSS,low polyreactivity
11,QVQLVESGGGLYQAGGSLRLSCAASGRIFRYYAMGWYRQAPGKERELVAAINWSGGSTYYADSVKGRFTISRDNAKNTVYLQMNSLKPEDTAVYYCNTRWYVGDDWGQGTQVTVSS,high polyreactivity
12,QVQLVESGGGLVQAGGSLRLSCAASGFTLSRYAMGWYRQAPGKERELVAAIRWSGGSTYYADSVKGRFTISRDNEKNTVYLQMNSLKPEDTAVYYCATRRSGYYSFYYWGQGTQVTGSS,high polyreactivity
13,QVQLVESGGGLVQAGGSLRLSCAASGSTFAFYAMGWYRQAPGKERELVAAINLGGGSTYYADSVKGRFTISRDNAKNTVYLQMNSLKPEDTAVYYCAADFWTFSWPVFDTYVYWGQGTQVTVSS,low polyreactivity
14,QVQLVESWGGLVQAGGSLRLSCAASGFIFTLYAMGWYRQATGKEREFVAAISWSDGSTTYADSVKGRFTISRDNAKTTVYLQMNSLKPEDTAVYYCAAVTSSYIRGLVYHFYYWGQGTQVTVSS,low polyreactivity
15,QVQLVESGGGLVQAGGSLRLCCAASGIIFQRNDMGWYRQAPGKERELVANIRDGGITYADSVKGRFTISRDNAKNTVYLQMNSLKPEDTAVYYCARDDTSPGYGDQSSIAAYYYWGQGTQVTVSS,low polyreactivity
16,QVQLVESGGGLVQAGGSLRLSCAASGSIFYQNAMGWYRQAPGKERELVAAITSSGGSTYYADSVKGRFTISRDNAKNTVYLQMNSLKPEDTAVYYCNKYFSWRPYSYYYWGQGTQVTVSS,high polyreactivity
17,QVQHVESGGGFVQAGGSLRLSCAASGITFYDYTMGWYRPAPGKERELVDAITSSGVSTYYADSVKGRFTISRDNAKKTVYLQMNSLKPEDTAVYYCATDAWSVYSYLAFTYDYWGQGTQVTVSS,low polyreactivity
18,QVQLVESGGGLVQAGGSLRLSCAASGRTFASYAMGWYRQAPGKERELVAGITSGGNTYYADSVKGRFTISRDNAKNTVYLQMNSLKPEDTAVYYCAADRVYLGLFRYEYWGQGTQVTVSS,high polyreactivity
19,QVQLVESGGGLVQAGVSLRLSCAASGNTFGLYAMGWYRQAPGKEREFVADITTDGGTTYYADSVKGRFTISRDNAKNTVYLQMNSLKPEDTAVYYCAKLGTFGQHQYDYWGQGTQVTVSS,low polyreactivity
20,QVQLVESGGGLVQAGGSLRLSCAASGLTFYYYAMGWYRQAPGKERELVAAISIGGSTDYADSAKGRFTISRDNAKNTVYLQMNRLKPEDTAVYYCNVDDNSEYDYWGQGTQVTVSS,low polyreactivity

# — the nanobody polyreactivity screen of Harvey et al. (2022)
